± gives the uncertainty stated by the source.

We go through 55 variants from the Human Domainome abundance scans (Beltran et al. 2025).

B1: Histone-lysine N-methyltransferase 2A, residues 1148 to 1194; numbered along this chain, Q03164 (parent)
chain: KGRRSRRCGQCPGCQVPEDCGVCTNCLDKPKFGGRNIKKQCCKMRKC

The variants in the data set derive from B1. Nature of the data set: abundance fitness (aPCA) (normalised: wild type 0, dead -1); higher = more abundant; growth selection in yeast, the domain comes from the species named. Conditions: Homo sapiens.
For KGRRSRRCGQCPGCQVPELCGVCTNCLDKPKFGGRNIKKQCCKMRKC [D19L], the abundance fitness was -0.878 ± 0.11. Turning to KGRRSRRCGQCPGCQVPECCGVCTNCLDKPKFGGRNIKKQCCKMRKC [D19C], the abundance fitness was -0.977 ± 0.2. In the case of KGRRSRRCGQCPGCQVPEHCGVCTNCLDKPKFGGRNIKKQCCKMRKC [D19H], the abundance fitness is -0.677 ± 0.28. Take KGRRSRRCGQCPGCQVPEACGVCTNCLDKPKFGGRNIKKQCCKMRKC [D19A]: the abundance fitness was -0.797 ± 0.11. For KGRRSRRCGQCPGCQVPEICGVCTNCLDKPKFGGRNIKKQCCKMRKC [D19I], the abundance fitness was -1.24 ± 0.42. Turning to KGRRSRRCGQCPGCQVPEECGVCTNCLDKPKFGGRNIKKQCCKMRKC [D19E], the abundance fitness was -0.962 ± 0.15. For the variant KGRRSRRCGQCPGCQVPEGCGVCTNCLDKPKFGGRNIKKQCCKMRKC [D19G], the abundance fitness was -0.96 ± 0.13. The value for KGRRSRRCGQCPGCQVPENCGVCTNCLDKPKFGGRNIKKQCCKMRKC [D19N] was -0.624 ± 0.18; that for KGRRSRRCGQCPGCQVPEFCGVCTNCLDKPKFGGRNIKKQCCKMRKC [D19F] was -1.02 ± 0.21; that for KGRRSRRCGQCPGTQVPEDCGVCTNCLDKPKFGGRNIKKQCCKMRKC [C14T] was -0.728 ± 0.14. For KGRRSRRCGQCPGRQVPEDCGVCTNCLDKPKFGGRNIKKQCCKMRKC [C14R] the value was -0.784 ± 0.089. As to KGRRSRRCGQCPGMQVPEDCGVCTNCLDKPKFGGRNIKKQCCKMRKC [C14M], the abundance fitness is -0.713 ± 0.17. Take KGRRSRRCGQCPGQQVPEDCGVCTNCLDKPKFGGRNIKKQCCKMRKC [C14Q]: the abundance fitness is -0.183 ± 0.16. The value for KGRRSRRCGQCPGIQVPEDCGVCTNCLDKPKFGGRNIKKQCCKMRKC [C14I] was -0.663 ± 0.18; that for KGRRSRRCGQCPGDQVPEDCGVCTNCLDKPKFGGRNIKKQCCKMRKC [C14D] was -0.779 ± 0.17; that for KGRRSRRCGQCPGGQVPEDCGVCTNCLDKPKFGGRNIKKQCCKMRKC [C14G] was -0.559 ± 0.088.

With KGRRSRRCGQCPGAQVPEDCGVCTNCLDKPKFGGRNIKKQCCKMRKC [C14A], the abundance fitness is -0.738 ± 0.11. Consider KGRRSRRCGQCPGFQVPEDCGVCTNCLDKPKFGGRNIKKQCCKMRKC [C14F], for which the abundance fitness was -0.913 ± 0.2. KGRRSRRCGQCPGPQVPEDCGVCTNCLDKPKFGGRNIKKQCCKMRKC [C14P]: the abundance fitness is -0.765 ± 0.16. The value for KGRRSRRCGQCPGSQVPEDCGVCTNCLDKPKFGGRNIKKQCCKMRKC [C14S] was -0.49 ± 0.096; that for KGRRSRRCGQCPGNQVPEDCGVCTNCLDKPKFGGRNIKKQCCKMRKC [C14N] was -0.288 ± 0.18. As for KGRRSRRCGQCPGLQVPEDCGVCTNCLDKPKFGGRNIKKQCCKMRKC [C14L], the abundance fitness was -0.916 ± 0.11. KGRRSRRCGQCPGVQVPEDCGVCTNCLDKPKFGGRNIKKQCCKMRKC [C14V]: the abundance fitness was -0.7 ± 0.12. As for KGRRSRRCGQCPGWQVPEDCGVCTNCLDKPKFGGRNIKKQCCKMRKC [C14W], the abundance fitness is -0.727 ± 0.12.

For the variant KGRRSRRCGQCPGYQVPEDCGVCTNCLDKPKFGGRNIKKQCCKMRKC [C14Y], the abundance fitness is -0.554 ± 0.14. With KGRRSRRCGQCPGCQVPVDCGVCTNCLDKPKFGGRNIKKQCCKMRKC [E18V], the abundance fitness is -0.093 ± 0.091. As for KGRRSRRCGQCPGCQVPDDCGVCTNCLDKPKFGGRNIKKQCCKMRKC [E18D], the abundance fitness was -0.182 ± 0.15. For the variant KGRRSRRCGQCPGCQVPWDCGVCTNCLDKPKFGGRNIKKQCCKMRKC [E18W], the abundance fitness is -0.1 ± 0.12. The value for KGRRSRRCGQCPGCQVPGDCGVCTNCLDKPKFGGRNIKKQCCKMRKC [E18G] was -0.469 ± 0.097; that for KGRRSRRCGQCPGCQVPQDCGVCTNCLDKPKFGGRNIKKQCCKMRKC [E18Q] was -0.177 ± 0.12; that for KGRRSRRCGQCPGCQVPADCGVCTNCLDKPKFGGRNIKKQCCKMRKC [E18A] was -0.089 ± 0.1.

Consider KGRRSRRCGQCPGCQVPPDCGVCTNCLDKPKFGGRNIKKQCCKMRKC [E18P], for which the abundance fitness was -0.495 ± 0.14. Consider KGRRSRRCGQCPGCQVPIDCGVCTNCLDKPKFGGRNIKKQCCKMRKC [E18I], for which the abundance fitness is -0.364 ± 0.14.

Turning to KGRRSRRCGQCPGCQVPLDCGVCTNCLDKPKFGGRNIKKQCCKMRKC [E18L], the abundance fitness is -0.213 ± 0.086. Consider KGRRSRRCGQCPGCQVPCDCGVCTNCLDKPKFGGRNIKKQCCKMRKC [E18C], for which the abundance fitness was -0.485 ± 0.14.

Turning to KGRRSRRCGQCPGCQVPRDCGVCTNCLDKPKFGGRNIKKQCCKMRKC [E18R], the abundance fitness is -0.049 ± 0.097. With KGRRSRRCGQCPGCQVPHDCGVCTNCLDKPKFGGRNIKKQCCKMRKC [E18H], the abundance fitness is -0.17 ± 0.15.

KGRRSRRCGQCPGCQVPTDCGVCTNCLDKPKFGGRNIKKQCCKMRKC [E18T]: the abundance fitness is -0.164 ± 0.11. Consider KGRRSRRCGQCPGCQVPSDCGVCTNCLDKPKFGGRNIKKQCCKMRKC [E18S], for which the abundance fitness was -0.092 ± 0.09. For KGRRSRRCGQCPGCQVPYDCGVCTNCLDKPKFGGRNIKKQCCKMRKC [E18Y] the value was -0.264 ± 0.15. Take KGRRSRRCGQCPGCQVPKDCGVCTNCLDKPKFGGRNIKKQCCKMRKC [E18K]: the abundance fitness is -0.002 ± 0.14. The value for KGRRSRRCGQCPGCQVPNDCGVCTNCLDKPKFGGRNIKKQCCKMRKC [E18N] was -0.161 ± 0.17; that for KGRRSRRCGQCPGCQVPMDCGVCTNCLDKPKFGGRNIKKQCCKMRKC [E18M] was -0.22 ± 0.14. As for KGRRSRRCGQCPNCQVPEDCGVCTNCLDKPKFGGRNIKKQCCKMRKC [G13N], the abundance fitness was -0.266 ± 0.11. Turning to KGRRSRRCGQCPRCQVPEDCGVCTNCLDKPKFGGRNIKKQCCKMRKC [G13R], the abundance fitness is -0.719 ± 0.1.

Regarding KGRRSRRCGQCPWCQVPEDCGVCTNCLDKPKFGGRNIKKQCCKMRKC [G13W], the abundance fitness is -0.708 ± 0.12. Take KGRRSRRCGQCPICQVPEDCGVCTNCLDKPKFGGRNIKKQCCKMRKC [G13I]: the abundance fitness is -0.606 ± 0.13. KGRRSRRCGQCPMCQVPEDCGVCTNCLDKPKFGGRNIKKQCCKMRKC [G13M]: the abundance fitness is -0.381 ± 0.11. For KGRRSRRCGQCPLCQVPEDCGVCTNCLDKPKFGGRNIKKQCCKMRKC [G13L], the abundance fitness is -0.445 ± 0.09. The value for KGRRSRRCGQCPKCQVPEDCGVCTNCLDKPKFGGRNIKKQCCKMRKC [G13K] was -0.678 ± 0.16; that for KGRRSRRCGQCPPCQVPEDCGVCTNCLDKPKFGGRNIKKQCCKMRKC [G13P] was 0.152 ± 0.11; that for KGRRSRRCGQCPHCQVPEDCGVCTNCLDKPKFGGRNIKKQCCKMRKC [G13H] was -0.884 ± 0.2. For the variant KGRRSRRCGQCPYCQVPEDCGVCTNCLDKPKFGGRNIKKQCCKMRKC [G13Y], the abundance fitness is -0.393 ± 0.11. The value for KGRRSRRCGQCPTCQVPEDCGVCTNCLDKPKFGGRNIKKQCCKMRKC [G13T] was -0.455 ± 0.099; that for KGRRSRRCGQCPQCQVPEDCGVCTNCLDKPKFGGRNIKKQCCKMRKC [G13Q] was -0.068 ± 0.15.
